Key:
[1] = molecular target: T1, human IL-13 (human, UniProt P35225); assay: SPR, average
[2] = molecular target: T1, human IL-13; assay: SPR, 25C, average of 3 determinations

T1 sequence (P35225 25-146): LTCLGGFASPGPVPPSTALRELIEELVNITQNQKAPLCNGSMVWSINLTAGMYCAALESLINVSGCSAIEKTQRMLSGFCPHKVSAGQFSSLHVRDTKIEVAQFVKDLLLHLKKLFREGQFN

- Kd [1]: 0.0134 nM
- Kd [2]: 0.015 nM
B1: Ab652 Fab (antibody, V domains shown)
VH: QVTLKESGPVLVKPTETLTLTCTVSGFSLSNARMGVSWIRQPPGKALEWLAHIFSNDEKSYSTSLKSRLTISKDTSKSQVVLTMTNMDPVDTATYYCARIYFDYWGQGTLVTVS
VL: DIQMTQSPSSLSASVGDRVTITCLASEDISNYLAWYQQKPGKAPKLLIYHTSRLQDGVPSRFSGSGSGTDFTLTISSLQPEDFATYYCQQGYRFPLTFGGGTKVEIK

Reference: patent US9957320 (dated 2018)
